Source: PMC10828404

Target: ACE2 receptor on ACE2-expressing HEK 293T cells (UniProt Q9BYF1)
Experiment: flow cytometry on cells

Sequence of UniProt Q9BYF1 (Q9BYF1 18-805): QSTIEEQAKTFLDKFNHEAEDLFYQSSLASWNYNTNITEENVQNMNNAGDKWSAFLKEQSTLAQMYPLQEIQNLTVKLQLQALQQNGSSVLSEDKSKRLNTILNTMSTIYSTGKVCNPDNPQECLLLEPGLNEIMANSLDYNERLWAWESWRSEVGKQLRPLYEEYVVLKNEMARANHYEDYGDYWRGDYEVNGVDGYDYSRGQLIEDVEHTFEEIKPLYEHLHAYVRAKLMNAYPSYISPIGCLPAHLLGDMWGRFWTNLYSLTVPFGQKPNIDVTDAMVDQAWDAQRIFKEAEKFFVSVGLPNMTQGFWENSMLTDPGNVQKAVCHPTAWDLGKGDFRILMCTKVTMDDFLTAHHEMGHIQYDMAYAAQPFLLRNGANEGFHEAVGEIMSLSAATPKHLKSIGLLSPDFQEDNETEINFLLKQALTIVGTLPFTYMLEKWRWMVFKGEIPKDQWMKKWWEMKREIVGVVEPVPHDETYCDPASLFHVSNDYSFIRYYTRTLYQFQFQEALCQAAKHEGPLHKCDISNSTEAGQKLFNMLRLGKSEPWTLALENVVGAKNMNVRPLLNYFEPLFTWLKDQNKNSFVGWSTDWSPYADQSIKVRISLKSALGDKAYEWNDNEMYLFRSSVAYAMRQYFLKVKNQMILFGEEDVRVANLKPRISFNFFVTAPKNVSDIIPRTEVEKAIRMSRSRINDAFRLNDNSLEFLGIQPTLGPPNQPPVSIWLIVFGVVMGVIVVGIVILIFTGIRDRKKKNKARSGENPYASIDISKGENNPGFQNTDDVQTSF

Question: Which fold increase in median fluorescence intensity (corrected for Cy5 brightness per RBD) against monomeric RBD-Cy5 does the source give for “DNA-VLP-Cy5-30x (icosahedral DNA origami displaying 30 copies of the SARS-CoV-2 RBD and 5 copies of Cy5)” here?
Answer: Its fold increase in median fluorescence intensity (corrected for Cy5 brightness per RBD) against monomeric RBD-Cy5 is 10 fold.
